From patent US11278600B2, “Human alpha-galactosidase variants” (Codexis, Inc., priority 2014, dated 2022)

B1: 121 (protein)
chain: LDNGLARTPTMGWLHWERFMCNLDCQEEPDSCISEKLFMEMAERMVSEGWKDAGYEYLCIDDCWMAPQRDSEGRLQADPQRFPHGIRQLANYVHSKGLKLGIYADVGNKTCAGFPGSFGYYDIDAQTFADWGVDLLKFDGCYCDSLENLADGYKHMSLALNRTGRSIVYSCEWPLYMWPFQKPNYTEIRQYCNHWRNFADIDDSWKSIKSILDWTSFNQERIVDVAGPGGWNDPDMLVIGNFGLSWNQQVTQMALWAIMAAPLFMSNDLRHISPQAKALLQDKDVIAINQDPLGKQGYQLRQGDNFEVWERPLSGLAWAVAMINRQEIGGPRSYTIAVASLGKGVACNPACFITQLLPVKRKLGFYEWTSRLRSHINPTGTVLFQLENTMQMSKDLLL
modifications: Synthetic Polypeptide sequence of Variant No. 121 of mature Human GLA
B2: 122 (protein)
chain: LDNGLARTPTMGWLHWERFMCNLDCQEEPDSCISEKLFMEMAETMVSEGWKDAGYEYLCIDDCWMAPQRDSEGRLQADPQRFPHGIRQLANYVHSKGLKLGIYADVGNKTCAGFPGSFGYYDIDAQTFADWGVDLLKFDGCYCDSLENLADGYKHMSLALNRTGRSIVYSCEWPLYMWPFQKPNYTEIRQYCNHWRNFADIDDSWKSIKSILDWTSFNQERIVDVAGPGGWNDPDMLVIGNFGLSWNQQVTQMALWAIMAAPLFMSNDLRHISPQAKALLQDKDVIAINQDPLGKQGYQLRQGDNFEVWERPLSGLAWAVAMINRQEIGGPRSYTIAVASLGKGVACNPACFITQLLPVKRKLGFYEWTSRLRSHINPTGTVLLQLENTMQMSKDLLL
modifications: Synthetic Polypeptide sequence of Variant No. 122 of mature Human GLA
B3: 197 (protein)
chain: LDNGLARTPTMGWLHWERFMCNLDCQEEPDSCISEKLFMEMAELMVSEGWKDAGYEYLCIDDCWMAPQRDSEGRLQADPQRFPHGIRQLANYVHSKGLKLGIYADVGNKTCAGFPGSFGYYDIDAQTFADWGVDLLKFDGCYCDSLENLADGYKHMSLALNRTGRSIVYSCEWPLYMWPFQKPNYTEIRQYCNHWRNFADIDDSWASIKSILDWTSFNQERIVDVAGPGGWNDPDMLVIGNFGLSWNQQVTQMALWAIMAAPLFMSNDLRHISPQAKALLQDKDVIAINQDPLGKQGYQLRQGDNFEVWERPLSGLAWAVAMINRQEIGGPRSYTIAVASLGKGVACNPGCFITQLLPVKRQLGFYEWASRLRSHINPTGTVLLQLENTMQMSKDLLL
modifications: Synthetic Polypeptide sequence of Variant No. 197 of mature Human GLA
B4: 195 (protein)
chain: LDNGLARTPTMGWLHWERFMCNLDCQEEPDSCISEKLFMEMAELMVSEGWKDAGYEYLCIDDCWMAPQRDSEGRLQADPQRFPHGIRQLANYVHSKGLKLGIYADVGNKTCAGFPGSFGYYDIDAQTFADWGVDLLKFDGCYCDSLENLADGYKHMSLALNRTGRSIVYSCEWPLYMWPFQKPNYTEIRQYCNHWRNFADIDDSWSSIKSILDWTSFNQERIVDVAGPGGWNDPDMLVIGNFGLSWNQQVTQMALWAIMAAPLFMSNDLRHISPQAKALLQDKDVIAINQDPLGKQGYQLRQGDNFEVWERPLSGLAWAVAMINRQEIGGPRSYTIAVASLGKGVACNPACFITQLLPVKRKLGFYEWTSRLRSHINPTGTVLLQLENTMQMSKDLLL
modifications: Synthetic Polypeptide sequence of Variant No. 195 of mature Human GLA
B5: 196 (protein)
chain: LDNGLARTPTMGWLHWERFMCNLDCQEEPDSCISEKLFMEMAELMVSEGWKDAGYEYLCIDDCWMAPQRDSEGRLQADPQRFPHGIRQLANYVHSKGLKLGIYADVGNKTCAGFPGSFGYYDIDAQTFADWGVDLLKFDGCYCDSLENLADGYKHMSLALNRTGRSIVYSCEWPLYMWPFQKPNYTEIRQYCNHWRNFADIDDSWASIKSILDWTSFNQERIVDVAGPGGWNDPDMLVIGNFGLSWNQQVTQMALWAIMAAPLFMSNDLRHISPQAKALLQDKDVIAINQDPLGKQGYQLRQGDNFEVWERPLSGLAWAVAMINRQEIGGPRSYTIAVASLGKGVACNPGCFITQLLPVKRKLGFYEWTSRLRSHINPTGTVLLQLENTMQMSKDLLL
modifications: Synthetic Polypeptide sequence of Variant No. 196 of mature Human GLA
B6: 198 (protein)
chain: LDNGLARTPTMGWLHWERFMCNLDCQEEPDSCISEKLFMEMAELMVSEGWKDAGYEYLCIDDCWMAPQRDSEGRLQADPQRFPHGIRQLANYVHSKGLKLGIYADVGNKTCAGFPGSFGYYDIDAQTFADWGVDLLKFDGCYCDSLENLADGYKHMSLALNRTGRSIVYSCEWPLYMWPFQKPNYTEIRQYCNHWRNFADIDDSWASIKSILDWTSFNQERIVDVAGPGGWNDPDMLVIGNFGLSWNQQVTQMALWAIMAAPLFMSNDLRHISPQAKALLQDKDVIAINQDPLGKQGYQLRQGDNFEVWERPLSGLAWAVAMINRQEIGGPRSYTIAVASLGKGVACNPGCFITQLLPVKRKLGFYEWDSRLRSHINPTGTVLLQLENTMQMSKDLLL
modifications: Synthetic Polypeptide sequence of Variant No. 198 of mature Human GLA
B7: 194 (protein)
chain: LDNGLARTPTMGWLHWERFMCNLDCQEEPDSCISEKLFMEMAELMVSEGWKDAGYEYLCIDDCWMAPQRDSEGRLQADPQRFPHGIRQLANYVHSKGLKLGIYADVGNKTCAGFPGSFGYYDIDAQTFADWGVDLLKFDGCYCDSLENLADGYKHMSLALNRTGRSIVYSCEWPLYMWPFQKPNYTEIRQYCNHWRNFADIDDSWRSIKSILDWTSFNQERIVDVAGPGGWNDPDMLVIGNFGLSWNQQVTQMALWAIMAAPLFMSNDLRHISPQAKALLQDKDVIAINQDPLGKQGYQLRQGDNFEVWERPLSGLAWAVAMINRQEIGGPRSYTIAVASLGKGVACNPACFITQLLPVKRKLGFYEWTSRLRSHINPTGTVLLQLENTMQMSKDLLL
modifications: Synthetic Polypeptide sequence of Variant No. 194 of mature Human GLA
B8: 35 (protein)
chain: LDNGLARTPTMGWLHWERFMCNLDCQEEPDSCISEKLFMEMAELMVSEGWKDAGYEYLCIDDCWMAPQRDSEGRLQADPQRFPHGIRQLANYVHSKGLKLGIYADVGNKTCAGFPGSFGYYDIDAQTFADWGVDLLKFDGCYCDSLENLADGYKHMSLALNRTGRSIVYSCEWPLYMWPFQKPNYTEIRQYCNHWRNFADIDDSWKSIKSILDWTSFNQERIVDVAGPGGWNDPDMLVIGNFGLSWNQQVTQMALWAIMAAPLFMSNDLRHISPQAKALLQDKDVIAINQDPLGKQGYQLRQGDNFEVWERPLSGLAWAVAMINRQEIGGPRSYTIAVSSLGKGVACNPACFITQLLPVKRKLGFYEWTSRLRSHINPTGTVLLQLENTMQMSKDLLL
modifications: Synthetic Polypeptide sequence of Variant No. 35 of mature Human GLA

Key:
Type in all cases: biochemical
[1] = HTP-analysis of yeast culture supernatants, no challenge (MUGal hydrolysis); details: yeast supernatant
Outline: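 GLA variants were expressed in INVSc1 yeast grown in SD-Ura broth with glucose at 30° C., and culture supernatants were collected after 66-84 h. Supernatant was mixed with McIlvaine buffer pH 4.8 and MUGal (2 mM stock) in 50 mM citrate, 200 mM KCl, pH 4.6, incubated at 37° C. for 30-180 minutes, then quenched with sodium carbonate.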

[2] = HTP-analysis of supernatants pretreated with acid (MUGal hydrolysis); details: challenge at pH 4.2, yeast supernatant
Outline: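 MUGal hydrolysis was tracked by fluorescence (Ex 355 nm, Em 448 nm) after a 30-180 min reaction at 37° C. in pH 4.8 McIlvaine/citrate buffer, stopped with 1 M sodium carbonate. Beforehand, yeast (INVSc1) culture supernatants carrying GLA variants were held 1-3 h at 37° C. in acidic McIlvaine buffer, pH 3.3-4.3.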

[3] = HTP-analysis of supernatants pretreated with base (MUGal hydrolysis); details: yeast supernatant; for Relative Activity of GLA Variants After Challenge at pH 7.1: activity of the variant/activity of WT GLA (SEQ ID NO: 5); for Relative Activity of GLA Variants After Challenge at pH 7.6: activity of the variant/activity of Rd2BB (SEQ ID NO: 10)
Outline: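 GLA variants secreted from yeast INVSc1; culture supernatants pre-incubated with McIlvaine buffer pH 7.0–8.2 or 200 mM bicarbonate pH 9.1–9.7 at 37° C. for 1–18 h. Residual activity: MUGal (4 mM stock) hydrolysis at pH 4.3–4.8, 37° C., 30–180 min, carbonate quench; fluorescence Ex 355/Em 448 nm.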

[4] = activity of the variant/activity of WT GLA (SEQ ID NO: 5)
[5] = activity of the variant/activity of Rd2BB (SEQ ID NO: 10)

Molecule	Relative Activity of GLA Variants After No Challenge (NC) [1, 4]	Relative Activity of GLA Variants After Challenge at pH 4.2 [2, 4]	Relative Activity of GLA Variants After Challenge at pH 7.1 [3]	Relative Activity of GLA Variants After No Challenge (NC) [1, 5]	Relative Activity of GLA Variants After Challenge at pH 4.2 [2, 5]	Relative Activity of GLA Variants After Challenge at pH 7.6 [3]
B1	+ (+ = 0.5 to 1.5 relative activity over WT GLA (SEQ ID NO: 5))	++ (++ = >1.5 to 2.5 relative activity over WT GLA (SEQ ID NO: 5))	++ (++ = >1.5 to 2.5 relative activity over WT GLA (SEQ ID NO: 5))	–	–	–
B2	++ (++ = >1.5 to 2.5 relative activity over WT GLA (SEQ ID NO: 5))	++ (++ = >1.5 to 2.5 relative activity over WT GLA (SEQ ID NO: 5))	++ (++ = >1.5 to 2.5 relative activity over WT GLA (SEQ ID NO: 5))	–	–	–
B3	–	–	–	++ (++ = 1.5 to 2.5 relative activity over Rd2BB (SEQ ID NO: 10))	++ (++ = 1.5 to 2.5 relative activity over Rd2BB (SEQ ID NO: 10))	++ (++ = 1.5 to 2.5 relative activity over Rd2BB (SEQ ID NO: 10))
B4	–	–	–	+ (+ = 0.5 to 1.5 relative activity over Rd2BB (SEQ ID NO: 10))	+ (+ = 0.5 to 1.5 relative activity over Rd2BB (SEQ ID NO: 10))	+ (+ = 0.5 to 1.5 relative activity over Rd2BB (SEQ ID NO: 10))
B5	–	–	–	+ (+ = 0.5 to 1.5 relative activity over Rd2BB (SEQ ID NO: 10))	+ (+ = 0.5 to 1.5 relative activity over Rd2BB (SEQ ID NO: 10))	+ (+ = 0.5 to 1.5 relative activity over Rd2BB (SEQ ID NO: 10))
B6	–	–	–	++ (++ = 1.5 to 2.5 relative activity over Rd2BB (SEQ ID NO: 10))	++ (++ = 1.5 to 2.5 relative activity over Rd2BB (SEQ ID NO: 10))	+++ (+++ = >2.5 relative activity over Rd2BB (SEQ ID NO: 10))
B7	–	–	–	++ (++ = 1.5 to 2.5 relative activity over Rd2BB (SEQ ID NO: 10))	++ (++ = 1.5 to 2.5 relative activity over Rd2BB (SEQ ID NO: 10))	++ (++ = 1.5 to 2.5 relative activity over Rd2BB (SEQ ID NO: 10))
B8	++ (++ = >1.5 to 2.5 relative activity over WT GLA (SEQ ID NO: 5))	++ (++ = >1.5 to 2.5 relative activity over WT GLA (SEQ ID NO: 5))	++ (++ = >1.5 to 2.5 relative activity over WT GLA (SEQ ID NO: 5))	–	–	–
